PMC4521159

How the values were obtained:
[1] = target: α-synuclein oligomers formed during incubation with IDE (37 °C, 48 h, agitation) (UniProt P37840)
[2] = target: α-synuclein oligomers formed during incubation with IDE (37 °C, 48 h, agitation) (UniProt P37840); remark: listed apart in the source
[3] = target: pre-formed α-synuclein oligomers (formed with the small molecule FN075) (UniProt P37840); assay: ITC; 200 μM IDE in the syringe, 20 μM pre-formed α-synuclein oligomers (FN075) in the cell; 20 or 30 °C; 20 mM phosphate pH 7.4, 140 mM NaCl

Substance: Insulin-degrading enzyme (IDE) (from UniProt P14735 1-1019)
- kcat of 1 μM IDE on fluorogenic substrate V after 48 h pre-incubation with 0-100 μM α-synuclein (0.020 without; highest at 100 μM) [1]: 0.058 s⁻¹
- kcat of 3 μM IDE on fluorogenic substrate V after 48 h pre-incubation with 0-70 μM α-synuclein (0.241 without; highest at 35 μM) [1]: 0.397 s⁻¹
- kcat/KM of 1 μM IDE on fluorogenic substrate V after 48 h pre-incubation with 0-100 μM α-synuclein (1010 without; highest at 100 μM) [1]: 1190 M⁻¹ s⁻¹
- kcat/KM of 3 μM IDE on fluorogenic substrate V after 48 h pre-incubation with 0-70 μM α-synuclein (25400 without; highest at 35 μM) [1]: 30500 M⁻¹ s⁻¹
- ThT fluorescence of 70 μM α-synuclein after 48 h (37 °C, agitation) with 0.2-6.0 μM IDE; half maximal inhibition of amyloid formation (molar ratio IDE to α-synuclein) [2]: 0.025
- stoichiometry N (IDE molecules per α-synuclein oligomer) [3]: 3
